# Laboratory results reported in article PMC1402309, “Selection, affinity maturation, and characterization of a human scFv antibody against CEA protein” (BMC Cancer, 2006).
# Biological target: T1, CEA, endogenous in human colon carcinoma LoVo cells (Homo sapiens (LoVo cells), UniProt P06731)
# T1 construct: carcinoembryonic antigen (CEA, CEACAM5), endogenous in LoVo colorectal carcinoma cells; which member carries the signal on cells is not separated; also called CEA in LoVo cells; 200 kDa band of LoVo cellular extract; source: endogenous, LoVo cells (on cells) and LoVo cellular extract
# T1 sequence (P06731 35-685): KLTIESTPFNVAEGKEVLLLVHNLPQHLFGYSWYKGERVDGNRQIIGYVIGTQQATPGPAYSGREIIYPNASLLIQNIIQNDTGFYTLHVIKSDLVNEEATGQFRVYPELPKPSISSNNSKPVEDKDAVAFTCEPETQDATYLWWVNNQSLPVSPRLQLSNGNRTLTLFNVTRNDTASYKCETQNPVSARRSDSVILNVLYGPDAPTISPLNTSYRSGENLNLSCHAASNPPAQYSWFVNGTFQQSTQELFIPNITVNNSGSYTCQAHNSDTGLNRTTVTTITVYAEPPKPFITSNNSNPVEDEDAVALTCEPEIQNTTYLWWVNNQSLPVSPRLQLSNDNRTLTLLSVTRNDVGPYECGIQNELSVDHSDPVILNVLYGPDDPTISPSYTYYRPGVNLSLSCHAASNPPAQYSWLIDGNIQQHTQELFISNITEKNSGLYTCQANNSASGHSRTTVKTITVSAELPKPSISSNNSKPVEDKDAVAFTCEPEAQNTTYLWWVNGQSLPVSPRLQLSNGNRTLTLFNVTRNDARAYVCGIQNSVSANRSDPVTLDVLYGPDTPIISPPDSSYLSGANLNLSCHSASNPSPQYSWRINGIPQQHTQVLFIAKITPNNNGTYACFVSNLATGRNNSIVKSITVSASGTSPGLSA
# Experiment: flow cytometry on cells; living/intact human cells; 5 ug/mL scFv in PBS 1% BSA, 1 h at RT; anti-FLAG and FITC goat anti-mouse IgG; grades by percent stained cells
# Settings: one partner purified
row,binding result,Binder
1,binds,"human MA39 scFv (anti-CEA single-chain antibody fragment) (scFv, V domains shown, clone from the ETH-2 synthetic human scFv library (DP47 heavy chain; DPK22 or DPL16 light chain, randomised CDR3s); the ELISA methods use soluble scFv; The methods name the host once as 'HB121'; also called scFv MA39; M39; source: E. coli HB2151, periplasmic extract, purified (Ni-NTA agarose); also culture supernatant) VH: not shown VL: SSELTQDPAVSVALGQTVRITCQGDSLRSYYASWYQQKPGQAPVLVIYGKNNRPSGIPDRFSGSSSGNTASLTITGAQAEDEADYYCNSSYPWLPYVVFGGGTKLTVL"

# Biological target: T2, carcinoembryonic antigen (CEA), human purified protein (Sigma) (Homo sapiens, UniProt P06731, biotin (biotinamidohexanoic acid N-hydroxysuccinimide ester) for selection and for the ELISA on streptavidin-coated plates; biotin-free for directly coated plates)
# T2 construct: carcinoembryonic antigen (CEA, CEACAM5), human, purified glycoprotein of about 200 kDa; also called CEACAM5; CD66e; source: bought: Sigma
# T2 sequence (P06731 35-685): as the sequence (P06731 35-685) above
# Experiment: ELISA; biotinylated CEA (1 ug/mL) on streptavidin-coated plates; scFv in blocking buffer (MPBS) 1 h at RT; anti-FLAG M2 and anti-mouse HRP
# Settings: one partner purified
row,binding result,Binder
1,binds,"human MA39 scFv (anti-CEA single-chain antibody fragment) (scFv, V domains shown, clone from the ETH-2 synthetic human scFv library (DP47 heavy chain; DPK22 or DPL16 light chain, randomised CDR3s); the ELISA methods use soluble scFv; The methods name the host once as 'HB121'; also called scFv MA39; M39; source: E. coli HB2151, periplasmic extract, purified (Ni-NTA agarose); also culture supernatant) VH: not shown VL: SSELTQDPAVSVALGQTVRITCQGDSLRSYYASWYQQKPGQAPVLVIYGKNNRPSGIPDRFSGSSSGNTASLTITGAQAEDEADYYCNSSYPWLPYVVFGGGTKLTVL"

# Biological target: T2, carcinoembryonic antigen (CEA), human …
# Experiment: not given
# Settings: not given
row,Binder,binding result
1,"E2 (antibody, V domains shown) VH: not shown VL: SSELTQDPAVSAAWGQTVRITCRGGSLGSSRASWYQQKPGQAPVLVIYGRNNRPSGIPDRFSGSSSGNTASLAITGAQAEDEADYYCNSSYAWLPYVVFGGGTKLTVL",binds
2,"B3 (antibody, V domains shown) VH: not shown VL: SSELTQDPAVSVALRQTVRITCQRDSLRSYYASWYQQKPGQAPVLVIYGKNNRPSGIPDRFSGSSSGNTASLTITGAQAEDEADYYCNSSYPWLPYVVFGGGTKLTVL",binds
3,"E9 (antibody, V domains shown) VH: not shown VL: SSELTQDPAVSVALGQTVRITCQGDSLRSSYASWYQQKPGQAPVLVIYGKNNRPSGIPGRFSVSSSGNTASLTITGAQAEDEADYYCNSSYAWLPYVVFGGGTKLTVL",binds
4,"E5 (antibody, V domains shown) VH: EVQLAESGGGLVQPGGSLRLSCAASGLTFSSYGMSTVRQAPGKGLEWVSAISGSGGSTYYADSVKGRFTISRDNSKNTLYLQMNSLRAEDTAVYYCAKSNEFLFDYWGQGTLVTVSR VL: SSELTQDPAVSVASGQTVRITCQGDSLRSSYASWYQRKPGQAPVLVIYGKNNRPSGIPDRFSGSSSGSTASLTITGAQAEDEADYYCNSSYAWLPYVVFGGGTKLTVL",binds
5,"E15 (antibody, V domains shown) VH: EVQLVESGGGLVQPGGSLRLSCTASGFTFSRYAMSTVRQAPGKGLEWVSAISGSGGSTYYADSVKGRFTISRDNSKNTLYLQMNSLRAEDTAVYYCAKSNEFLFDYWGQGTLVTVSR VL: SSELTQDPAVSVALGQTVRITCQGDSLRSSYASWYQQKPGQAPVLVIYGKNNRPSGIPDRFSVSSSGNTASLTITGAQAEDEADYYCNSSYAWLPYVVFGGGTKLTVL",binds

# Continued, values first:
row,binding result,Binder
1,binds,"E4 (antibody, V domains shown) VH: EVQLAESGGGLVQPGGSLRLSCAASGFTFSSYGMSTVRQAPGKGLEWVSAISGSGGSTYYADSVKGRFTISRDNSKNTLYLQMNSLRAEDTAVYYCAKSNEFLFDYWGQGTLVTVSR VL: LSELTQDPAASVALGQTVRITCQGDSLRSSYASWYQQKPGQAPVLVIYGKNNRPPGIPDRFSVSSSGNTASLTITGAQAEDEADYYCNSSYAWLPYVVFGGGTKLTVL"
2,binds,"E1 (antibody, V domains shown) VH: EVQLAESGGGLVQPGGSLRLPCAAPGFTFSSYAMSTVRQAPGKGLEWVSAISGSGGSTYYADSVKGRFTISRDNSKNTLYLQMNSLRAEDTAVYYCAKSNEFLFDYWGQGTLVTVSR VL: SSELTQDPAVSVALGQTVRITCRGDSLRSSYASWYQQKPGQAPVLVIYGKNNRPSGIPDRFSVSSSGNTASLTITGAQAEDEADYYCNSSYAWPPYVVFGGGTKLTVL"
3,binds,"E14 (antibody, V domains shown) VH: EVQLAESGGGLVQPGGSLRLSCAASGFTFSSYAMSTVRQAPGKGLEWVSAISGSGGSTYYADSVMGRFTISRDNSKNTLYLQMNSLRAEDTAVYYCAKSNEFLFDYWGQGTLVTVSR VL: SSELTQDPAVSVALGQTVRITCQGDSLRGSYASWHQQKPGQAPVLVIYGKNNRPSGIPDRFSVSSSGNTASLTITGAQAEDEADYYCNSSYAWLPYVVFGGGTKLTVL"
4,binds,"B5 (antibody, V domains shown) VH: not shown VL: SSELTQDPAVPVALRQTVRITCQGDSLRSYYASWYQQKPGQAPVLVIYGKNNRPSGIPDRFSGSSSGNTASLTITGAQAEDEADYYCNSSYPWLPYVVFGGGTKLTVL"
5,binds,"B17 (antibody, V domains shown) VH: not shown VL: SSELTQDPAVSVALGQTVRITCQGDSLRSYYASWYQQKPGQAPVLVIYGKNNRPSGIPDRFSGSSSGNTASLTITGAQAEDEADYYCNSSYPWLPYVVFGGGTKLTVL"
6,binds,"E3 (antibody, V domains shown) VH: EVQLAESGGGLVRPGGSLRLSCAASGFTFSSYAMSTVRQAPGKGLEWVSAISGSGGSTYYADSVKGRFTISRDNSENTLYLQMNSLRAEDTAVYYCAKSNEFLFDYWGQGTLVTVSR VL: SSELTQDPAVSVALGQTVRITCQGDSLRSSYASWYQQKPGQAPVLVIYGKNNRPSGIPDRFSGSSSGNTASLTITGAQAEDEADYYCNSSYAWLPYVVFGGGTKLTVL"
7,binds,"E13 (antibody, V domains shown) VH: EVQLAEPGGGLVQPGGSLRLSCAASGLTFSSYAMSTIRQAPGKGLEWVSAISGSGGSTYYADSVKGRFTISRDNSENTLYLQMNSLRAEDTAVYYCAKSNEFLFDYWGQGTLVTVSR VL: SSELTQDPAVSVALGQAVRITCQGDSLRSTYASWYQQKPGQAPVLVIYGKNNRPSGIPDRFSGSSSGNTASLTIAGAQAEDEADYYCNSSYAWLPYVVFGGGTKLTVL"
8,binds,"E6 (antibody, V domains shown) VH: EVQLVETGGGLVQPGGSLRLSCAASGFAFSSYGMSTVRQAPGKGLEWVSAISGSGGSTYYADSVKGRFTISRDNSKNTLYLQMNSLRAEDTAVYYCAKSNEFLFDYWGQGTLVTVSR VL: SSELTQDPAVSVALGQTVRITCQGDSLRSSHASWYQQKPGRAPVLVIYGKNNRPSGIPARFSASSSGNTASLTITGAQAEDEADYYCNSSYAWLPYVVFGGGTKLTVL"
